For two molecules, binding result and Kd results are on record in article PMC7659708, “Genetically encoded live-cell sensor for tyrosinated microtubules” (The Journal of Cell Biology, 2020).

For orientation: Kd means the constant that tells how readily two partners part at equilibrium.

“And” between values parts separate entries of the source, which are not always exact repeats. Equal entries are not always repeated. Where no end group is shown, it is not given here. The star is where a group is joined. Biotin = O=C1N[C@H]2[C@H](CS[C@H]2CCCCC(=O)*)N1

What all share (details): both partners purified
Assay [1] has as its target T1, 13C-15N isotope-labeled A1aY1 protein (thrombin-cleaved) (13C, 15N isotope-labeled).
T1 construct: A1aY1, an SSO7D mutant selected from a combinatorial yeast display library; source: E. coli Rosetta (DE3) grown in M9 media, purified (Ni-NTA, SEC, thrombin cleavage, SEC); not shown: His6, N-terminal, cleaved
T1 chain: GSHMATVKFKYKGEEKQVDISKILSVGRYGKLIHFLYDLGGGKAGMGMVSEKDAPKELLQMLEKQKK
In words: NMR titration; 1H-15N HSQC of 13C,15N-labeled A1aY1 with nonbiotinylated peptides added at 0.5 to 7 equivalents (Hs_TUBA1A) or 1 to 4 equivalents (Hs_TUBA1A-ΔY); 25°C.

For another assay, the target named is T2, biotin-Tba-1 437-449 (C. elegans).
T2 construct: C-terminal tail of C. elegans alpha-tubulin Tba-1, amino acids 437-449; source: synthetic peptide (LifeTein)
T2 peptide: Biotin-SNEGGNEEEGEEY
Description: SPR; steady-state binding assay, Biacore-T200; biotinylated peptides immobilized on a streptavidin (SA) sensor chip at 100-300 response units; A1aY1 titrated from 0.031 to 200 µM; 1x HBS-P+ (10 mM Hepes, 150 mM NaCl, 0.05% surfactant P20), 30 µl/min; 1:1 binding considered, one site total fit. In general terms: In SPR one partner is held on a chip, and binding of the other changes the refractive index at the surface.

The target in a further assay is T3, biotin-TUBA1A 440-451 (human).
T3 construct: C-terminal tail of human alpha-tubulin TUBA1A, amino acids 440-451, tyrosinated; source: synthetic peptide (Thermo Fisher Scientific)
T3 peptide: Biotin-VEGEGEEEGEEY
Described as above.

For assay [2], the target named is T4, biotin-TUBA1A 440-451-[E]445 (human).
T4 construct: C-terminal tail of human alpha-tubulin TUBA1A, amino acids 440-451, printed VEGEG[E]EEGEEY with [E] the monoglutamylated residue 445; source: synthetic peptide (Thermo Fisher Scientific)
T4 peptide: Biotin-VEGEGE(Glu)EEGEEY
The assay is described as above.

Another assay has as its target T5, biotin-TUBA1A 440-450 (human).
T5 construct: C-terminal tail of human alpha-tubulin TUBA1A, amino acids 440-450, without the terminal tyrosine (detyrosinated); source: synthetic peptide (Thermo Fisher Scientific)
T5 peptide: Biotin-VEGEGEEEGEE
Described as above.

The target of a further assay is T6, biotin-Tub84B 438-450 (Drosophila).
T6 construct: C-terminal tail of Drosophila alpha-tubulin Tub84B; they would span 439-450 if the last residue is 450; source: synthetic peptide (LifeTein)
T6 peptide: Biotin-SGDGEGEGAEEY
Described as above.

B1: nonbiotinylated Hs_TUBA1A peptide (peptide)
peptide: VEGEGEEEGEEY
notes: C-terminal tail of human alpha-tubulin TUBA1A, amino acids 440-451, tyrosinated, without biotin; also called tyrosinated peptide; α-tubulin CTT peptide; source: synthetic peptide (LifeTein)
For the molecule B1, the binding result in assay [1] is “binds”.

B2: A1aY1 binder (designed binder)
chain: MATVKFKYKGEEKQVDISKILSVGRYGKLIHFLYDLGGGKAGMGMVSEKDAPKELLQMLEKQKK
notes: A1aY1, an SSO7D mutant selected from a combinatorial yeast display library; (His6, thrombin site, A1aY1); Protein used in the SPR steady-state titrations; The results say 'without any tags'; the methods describe the stored protein as 9.3 kD, which is the size with His6 and thrombin site, and tell of thrombin cleavage only for the NMR sample; also called tyrosination sensor; source: E. coli …
With B2, the Kd was 1 ± 0.2 µM in the assay with biotin-Tba-1 437-449; 1.6 ± 0.3 µM with biotin-TUBA1A 440-451; 13.6 ± 4.5 µM in assay [2]; more than 60 µM with biotin-TUBA1A 440-450; 4.1 µM and 4 µM with biotin-Tub84B 438-450.
